Paper PMC2795851
“And” between values parts separate entries of the source, which are not always exact repeats. Identical values can stand only once.

These substances were tested against sfpCHIR-AB1, soluble fusion protein of the extracellular region of CHIR-AB1 and human IgG-Fc (chicken) (assay: SPR; 90RU of purified sfpCHIR-AB1 immobilised on a CM5 sensor surface; purified IgY-Fc (Fcυ2–4) mutants 25–400 nM flowed over; Biacore 3000; 1:1 binding model).
Work on “chicken IgY-Fc (Fcυ2–4) E437H/L440R (domain or fragment)” yielded a Ka of 1.8e+08 M⁻¹, a koff of 0.0021 s⁻¹ and a kon of 380000 M⁻¹ s⁻¹.
“chicken IgY-Fc (Fcυ2–4) F557R (domain or fragment)” gave a Ka of 7.3e+07 M⁻¹, a koff of 0.013 s⁻¹ and a kon of 920000 M⁻¹ s⁻¹.
“chicken IgY-Fc (Fcυ2–4) H495E (domain or fragment)” showed a Ka of 1.1e+08 M⁻¹, a koff of 0.0015 s⁻¹ and a kon of 170000 M⁻¹ s⁻¹.
Work on “chicken IgY-Fc (Fcυ2–4) N376D (domain or fragment)” yielded a Ka of 2e+08 M⁻¹, a koff of 0.0021 s⁻¹ and a kon of 410000 M⁻¹ s⁻¹.
Substance “chicken IgY-Fc (Fcυ2–4) R490E (domain or fragment)” has a Ka of 4.5e+08 M⁻¹, a koff of 0.00051 s⁻¹ and a kon of 230000 M⁻¹ s⁻¹.
In the case of “chicken IgY-Fc (Fcυ2–4) R496E (domain or fragment)”, the Ka is reported as 1.8e+08 M⁻¹, the koff is reported as 0.0013 s⁻¹ and the kon is reported as 220000 M⁻¹ s⁻¹.
“chicken IgY-Fc (Fcυ2–4) R556E (domain or fragment)” showed a Ka of 9.3e+06 M⁻¹, a koff of 0.0011 s⁻¹ and a kon of 11000 M⁻¹ s⁻¹.
“chicken IgY-Fc (Fcυ2–4) S346D/C347P/S348R/P349G (domain or fragment)” was tested, and the Ka was 9.5e+07 M⁻¹, the koff was 0.0044 s⁻¹ and the kon was 420000 M⁻¹ s⁻¹.
For “chicken IgY-Fc fragment containing heavy chain constant domains 2, 3 and 4 (Fcυ2–4), wild type (domain or fragment)”, the Ka was 2.1e+08 M⁻¹ and 1.4e+08 M⁻¹, the koff was 0.0012 s⁻¹ and 0.0021 s⁻¹ and the kon was 300000 M⁻¹ s⁻¹ and 260000 M⁻¹ s⁻¹.
